Test results as given in paper PMC12287161, “A bioactive soluble recombinant mouse LIGHT promotes effective tumor immune cell infiltration delaying tumor growth” (Journal of Molecular Medicine (Berlin, Germany), 2025).

T1: mHVEM:Fas (mouse | human, UniProt Q80WM9 39-206; P25445 169-335)
T1 chain: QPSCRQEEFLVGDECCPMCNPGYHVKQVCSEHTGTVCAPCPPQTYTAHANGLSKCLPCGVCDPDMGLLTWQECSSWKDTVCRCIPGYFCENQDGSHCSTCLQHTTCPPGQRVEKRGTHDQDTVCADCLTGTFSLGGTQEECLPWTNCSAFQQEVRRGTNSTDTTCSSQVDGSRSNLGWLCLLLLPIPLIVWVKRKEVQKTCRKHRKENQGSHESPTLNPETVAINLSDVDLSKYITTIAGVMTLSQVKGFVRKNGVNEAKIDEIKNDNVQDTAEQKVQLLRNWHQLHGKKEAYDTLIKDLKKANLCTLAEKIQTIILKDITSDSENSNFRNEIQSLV


Experiments:
mHVEM:Fas = molecular target: T1, mHVEM:Fas; assay: cell-based or functional assay
[1] = molecular target: the molecule itself; assay: SEC; Superdex S200 Increase HR 10/30 in PBS, 0.55 ml/min, 250 µl of affinity-purified protein; 1 ml fractions analysed by Western blot and on reporter cells; column calibrated with protein standards

Binder | EC50 of killing of mHVEM:Fas reporter cells (MTS/PMS) by conditioned supernatants of B16.F10 cells expressing Ig.Foldon-mLIGHT (mHVEM:Fas) [µg/mL] | EC50 of killing of mHVEM:Fas reporter cells (MTS/PMS) by purified Ig.Foldon-mLIGHT (mHVEM:Fas) [µg/mL] | stoichiometry N [1]
Ig.Foldon-mLIGHT (Fc fusion) GYIPEAPRDGQAYVRKDGEWVLLSTFLDGGKGSWEKLIQDQRSHQANPAAHLTGANASLIGIGGPLLWETRLGLAFLRGLTYHDGALVTMEPGYYYVYSKVQLSGVGCPQGLANGLPITHGLYKRTSRYPKELELLVSRRSPCGRANSSRVWWDSSFLGGVVHLEAGEEVVVRVPGNRLVRPRDGTRSYFGAFMV | 0.0019 | 0.051 | 
Flag-Foldon-mLIGHT (ligand, Foldon, small homotrimeric domain; mouse LIGHT (TNFSF14, CD258), aa 72-239 of the 239 amino acids-long protein; the majority ran as poorly active species of around 500 kDa; also called pIB-173; source: HEK-293T, conditioned supernatant) GYIPEAPRDGQAYVRKDGEWVLLSTFLDGGKGSWEKLIQDQRSHQANPAAHLTGANASLIGIGGPLLWETRLGLAFLRGLTYHDGALVTMEPGYYYVYSKVQLSGVGCPQGLANGLPITHGLYKRTSRYPKELELLVSRRSPCGRANSSRVWWDSSFLGGVVHLEAGEEVVVRVPGNRLVRPRDGTRSYFGAFMV |  |  | 3
